Measured values taken from the nanobody polyreactivity screen of Harvey et al. (2022).

Experiment: yeast display, Sf9 membrane polyspecificity reagent, FACS + sequencing; frameworks hold sequencing errors
How it was run: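 A nanobody's polyreactivity label depends on the gate it was sorted from. Yeast display cells were stained with 10% biotinylated, detergent-solubilized Sf9 membrane reagent for 1 hour at 4 °C, enriched on streptavidin microbeads and sorted by FACS. The low and high (top ~1%) gates were set on anti-HA fluorescence for expression and streptavidin fluorescence for reagent binding.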

Sequence | polyreactivity (PSR sort gate)
QVQLVESGGGLGQAGGSLRLSCAASGSTFPYYAMGWSRPAPGKERELVAVITSSGSRTYYADSVKGRFSMSRDKAKNTVYLQMNSLKPEETAVYYCARDTRYYRPYRSQYDYWGQGTQVTVSS | high polyreactivity
QVQLVESGGGLVQAGGSLRLSCAASGSTLTSNAMGWYRQAPGKERELVAAIRSGGSTNYADSVKGRFTISRDNAKNTVYLQMNSLKPEDTAVYYCNKDVLWQGYGYSRVSYDYWGQGTQVTVSS | low polyreactivity
QVQLQESGGGLVQAGGSLRLSCAASGNIVDADIMGWYRQAPGKEREIVASITDGGSTNYADSLKGRFTISRDNAKNTVYQQMNSLIPEDTAVYYCAAIAYPDIPPYFDYDSDYFDWGQGTQETVSS | high polyreactivity
QVHLVESGGGLVQAGGSLRLSCASTGIIFLRNAMGWYRQAHGKERELVAAISYRGGSTYYADSVKGRFTISRDNANNTVYLQMNSLKPEDTAVYYCNDLYTSLYDYWGQGTQVTVSS | high polyreactivity
QVQLVESGGGLVQAGGSLRLSCAASGFTLWLNAMGWYRQAPGKERELVAAITTSDDGTYYADSVKGRFTISRDTAKNTVYLQMNSLKPEDTAVYYCAADYYSVLYDYWGQGTQVTVSS | low polyreactivity
QVQLVESGGGLVQAGGSLRLSCAASGSIFRVYAMGWYRQAPGKERELVAAISSSGDSTYYADSVKGRFTISRDNAKNTVYLQMNSLKPEDTAVYYCAADVKQRVKSSTMYYWGQGTQVTVSS | high polyreactivity
QVQLVESGGGLVQAGGSLRLSCAASGSTFLQNAMGWYRQAPGKERELVAAISRSGGSTYYADSVKGRFTISRDNAKNTVYLQMNSLKPEDTAVYYCAAGGRRYDDDYWGQGTQVTVSS | high polyreactivity
QVQLVESGGGLVQAGGRLRLSCAASGSIFTYNAMGWYIQAPGKERELVAAISASGGRTYYADSVKGRFTISRDNAKNTVYLQMNILKPEDTAVYYCAARIRVSGLRRFDYWGQGTQVTVSS | high polyreactivity
QVQRVESGGGLVQAGGSLRLSCAASGSIFYVYVMGWYRLAPGKERELVAGISYRGGSTYYADSVKGRFTISRDNAKNTVYLQMNSLKPEDTAVYYCNAGVWTYWHIEMDYWGQGTQVTVSS | low polyreactivity
QVQIVESGGGLVQAGGSLRFSCAASGRTFWLNDMGWYRHAPGKERELVARISRRGGSTYYAHSVKGRFTISRDHAKNTVYLQIISLKPEDTAVYYCAAAIVTRSYKYDYWGQGTQVTVSS | high polyreactivity
QVQLVESGGGLVQAGGSLRLSCAASGRIFYNNVMGWYRQAPGKERELVAAISGNGGSTYYADSVKGRFTISRDNAKNTVYLQMNSLKPEDTAVYFCAADDLYTDYETWWRRGDYWGQGTQVTVSS | low polyreactivity
QVQLVESGGGLVQAGGSLRLSCAASGSIFRYYAMGWYRQAPGKERELVATISSGGRTYYADSVKGRFTISRDNAKNTVYLQMNSQKPEDTAVYYCAARYGTTRYGFDYWGQGTQVTVSS | high polyreactivity
QVQLVESGGGLVQAGGSLRLSCAASGRTFESYAMGWYRPAPGKERELVAAITWSGGDTYYADSVKGRFTISRDNAKNTVYLQMNSLKPEDTAVYYCAKEQGLYSVSPYDYWGQGTQVTVSS | low polyreactivity
QVQLVESGGGLVQAGGSLRLSCAASGRIFTPYVLGWYRQAPGKERELVARISWTGSSTYYADSVKGRFTISRDNAKNTVYLQMNSLKPEDTAVYYCAKRLTRFYTRLEYWGQGTQVTVSS | low polyreactivity
QVQLVESGGGLVQAGGSLRLSCAASGSIFARYTMGWYRQAPGKERELVASITWRTGSTYYADSVKGRFTISRDNAKNTVYLQMNSLKPEDTAVYYCNKAYTITQYGWIPLGYWGQGTQVTVSS | high polyreactivity
QDQLVESGGGLVQAGGSLRLSCAASGRTFSYNAMGWYRQAPRKERELVAAISYDGGRTYYADSVKGRFTISRDNAKNTFYLQMNSLKPEDTAVYYCAAYPYRGPHTWTIGDYWGQGTQVTVSS | low polyreactivity
QVQLVESGGGLVQAGGSLRLSCAASGSTLYRNAMGWYRQAPGKEREFVAAISWSGGSTYYADSVKGRFTISRDNAKNTVYLQMNSLKPEDTAVYYCNARGPTVYETHNYWGQGTQVTVSS | low polyreactivity
